Experimental data reported in PMC5672800.

Assays:
[1] = molecular target: mouse melanocortin-3 receptor (mouse) (UniProt P33033)
[2] = molecular target: mouse melanocortin-5 receptor (mouse) (UniProt P41149)
[3] = molecular target: mouse melanocortin-1 receptor (mouse) (UniProt Q01727)
[4] = molecular target: mouse melanocortin-4 receptor (mouse) (UniProt P56450); assay: radioligand binding
[5] = molecular target: mouse melanocortin-3 receptor (mouse) (UniProt P33033); assay: radioligand binding

Sequence of mouse melanocortin-3 receptor (mouse) (P33033 whole entry): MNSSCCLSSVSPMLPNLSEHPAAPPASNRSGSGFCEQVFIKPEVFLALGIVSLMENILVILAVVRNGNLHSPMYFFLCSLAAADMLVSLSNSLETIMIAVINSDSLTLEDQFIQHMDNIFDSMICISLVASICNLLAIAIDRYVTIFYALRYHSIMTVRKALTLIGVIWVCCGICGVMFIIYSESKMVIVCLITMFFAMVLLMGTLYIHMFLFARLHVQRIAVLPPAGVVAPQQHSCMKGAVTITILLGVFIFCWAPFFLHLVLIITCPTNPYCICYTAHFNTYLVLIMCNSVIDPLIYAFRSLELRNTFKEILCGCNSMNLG
Sequence of mouse melanocortin-4 receptor (mouse) (P56450 whole entry): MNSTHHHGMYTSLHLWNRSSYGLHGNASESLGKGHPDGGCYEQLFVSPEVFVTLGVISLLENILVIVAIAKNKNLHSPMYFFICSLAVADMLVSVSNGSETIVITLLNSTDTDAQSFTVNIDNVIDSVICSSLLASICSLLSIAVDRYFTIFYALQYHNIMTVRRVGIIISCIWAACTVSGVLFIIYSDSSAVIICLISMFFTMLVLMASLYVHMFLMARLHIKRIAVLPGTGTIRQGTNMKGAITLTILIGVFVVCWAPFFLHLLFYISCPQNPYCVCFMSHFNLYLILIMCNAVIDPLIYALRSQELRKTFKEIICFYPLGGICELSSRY
Sequence of mouse melanocortin-1 receptor (mouse) (Q01727 whole entry): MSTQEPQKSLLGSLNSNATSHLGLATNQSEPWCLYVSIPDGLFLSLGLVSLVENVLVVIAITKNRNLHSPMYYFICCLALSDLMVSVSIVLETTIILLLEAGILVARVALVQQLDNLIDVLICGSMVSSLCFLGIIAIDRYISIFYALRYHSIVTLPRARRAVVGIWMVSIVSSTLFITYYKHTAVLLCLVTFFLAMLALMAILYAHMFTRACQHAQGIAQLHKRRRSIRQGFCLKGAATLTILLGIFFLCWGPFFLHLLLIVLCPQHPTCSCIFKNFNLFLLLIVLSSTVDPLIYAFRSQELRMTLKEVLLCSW
Sequence of mouse melanocortin-5 receptor (mouse) (P41149 whole entry): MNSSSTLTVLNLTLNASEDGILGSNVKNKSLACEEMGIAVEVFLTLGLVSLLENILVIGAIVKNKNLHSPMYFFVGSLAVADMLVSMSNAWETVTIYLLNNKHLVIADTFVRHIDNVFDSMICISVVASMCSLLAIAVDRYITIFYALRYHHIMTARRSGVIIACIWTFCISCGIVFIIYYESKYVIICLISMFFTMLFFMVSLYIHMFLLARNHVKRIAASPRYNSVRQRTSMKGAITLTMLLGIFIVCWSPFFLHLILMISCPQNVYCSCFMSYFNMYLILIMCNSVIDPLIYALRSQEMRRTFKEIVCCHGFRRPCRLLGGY

Binder | cAMP AlphaScreen, HEK293 cells stably expressing the receptor: agonist EC50 [1] [nM] | cAMP AlphaScreen, HEK293 cells stably expressing the receptor: agonist EC50 [2] [nM] | cAMP AlphaScreen, HEK293 cells stably expressing the receptor: agonist EC50 [3] [nM] | IC50 [4] [nM] | IC50 [5] [nM]
HRFF (HELM PEPTIDE1{[ac].H.R.[O=C([C@@H](Cc1ccc(I)cc1)N[*:1])[*:2]].F.[am]}$$$$V2.0; SMILES CC(=O)N[C@@H](Cc1c[nH]cn1)C(=O)N[C@@H](CCCNC(=N)N)C(=O)N[C@H](Cc1ccc(I)cc1)C(=O)N[C@@H](Cc1ccccc1)C(N)=O) [compound 26] | 1100 | 680 | 92 |  | 
RRFF (HELM PEPTIDE1{[ac].R.R.[O=C([C@@H](Cc1ccc(I)cc1)N[*:1])[*:2]].F.[am]}$$$$V2.0; SMILES CC(=O)N[C@@H](CCCNC(=N)N)C(=O)N[C@@H](CCCNC(=N)N)C(=O)N[C@H](Cc1ccc(I)cc1)C(=O)N[C@@H](Cc1ccccc1)C(N)=O) [compound 25] | 540 |  |  | 455 | 6500
